Measurements published in patent publication US20260258084A1, “New Peptides as Selective IL-23 Receptor Antagonists” (Sanofi, priority 2022, published 2026).
Starred links: 1 amine or outer side, 2 acyl side, 3 side chain; linkers in the order of their positions; H or OH if unused. Positions of bridges follow the written chain, without caps; N, C: chain ends. Non-standard residues stand in square brackets, D forms with d. No end group written: not given here. Yde = (2S)-2-amino-3-[4-[2-(dimethylamino)ethoxy]phenyl]propanoic acid, CN(C)CCOc1ccc(C[C@H](N[*:1])C(=O)[*:2])cc1; Trp(7-Me) = Cc1cccc2c(C[C@H](N)C(=O)O)c[nH]c12; Trp(1-Me) = Cn1cc(C[C@H](N)C(=O)O)c2ccccc21; αMeLys(Me2) = CN(C)CCCC[C@](C)(N)C(=O)O; 2Nal = N[C@@H](Cc1ccc2ccccc2c1)C(=O)O; εLys = N[C@@H](CCCCN[*:1])C(=O)[*:2]; 3Pal = N[C@@H](Cc1cccnc1)C(=O)O; Dad = desamino-aspartamic acid; Lys(Me) = CNCCCC[C@H](N)C(=O)O; αMeL = CC(C)C[C@](C)(N)C(=O)O; Thp = NC1(C(=O)O)CCOCC1; Abu = CC[C@H](N)C(=O)O; Aib = CC(C)(N)C(=O)O; Ava = NCCCCC(=O)O; Sar = CNCC(=O)O

T1: IL-23 receptor on the surface of HEK-Blue IL-23 cells (UniProt Q5VWK5 24-629, limits assumed)
T1 sequence (looked up): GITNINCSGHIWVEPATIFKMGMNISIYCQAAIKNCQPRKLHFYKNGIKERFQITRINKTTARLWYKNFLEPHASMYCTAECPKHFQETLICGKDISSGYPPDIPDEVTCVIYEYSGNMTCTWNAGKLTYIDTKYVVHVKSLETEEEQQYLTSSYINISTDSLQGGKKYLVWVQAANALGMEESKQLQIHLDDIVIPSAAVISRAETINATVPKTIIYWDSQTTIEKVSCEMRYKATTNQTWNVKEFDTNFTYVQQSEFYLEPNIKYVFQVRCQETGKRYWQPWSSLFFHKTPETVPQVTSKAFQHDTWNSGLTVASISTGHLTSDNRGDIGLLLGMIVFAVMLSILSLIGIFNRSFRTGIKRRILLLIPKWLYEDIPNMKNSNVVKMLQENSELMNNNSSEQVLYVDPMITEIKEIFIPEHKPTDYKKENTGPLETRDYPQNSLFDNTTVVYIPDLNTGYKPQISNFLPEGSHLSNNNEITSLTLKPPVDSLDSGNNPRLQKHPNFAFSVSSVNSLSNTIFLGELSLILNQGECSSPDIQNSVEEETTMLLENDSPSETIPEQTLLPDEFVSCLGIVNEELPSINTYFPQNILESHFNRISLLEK

B1: Compound of SEQ ID NO: 122 (peptide)
peptide: [Dad][Abu]K[Trp(7-Me)]K(Ac)C[Yde][2Nal][Thp]KN[3Pal][Sar]-NH2
modifications: lactam (positions not given here); thioether 2-6; not fully specified (residue 3, bridges); printed as Dad(§1)-Abu(§3)(@2)-K[aAc](@3)-Wim-K[Ac]-C(@2)-Yde-Nal-Thp-K(§1)-N-Pal-Sar-NH2; also: K[aAc]: Abu2 bonded to epsilon-NH2 of acetylated Lys3, acetyl presumably on alpha-amine
B2: Compound of SEQ ID NO: 126 (peptide)
peptide: [Ava]CK[Trp(1-Me)]K(Ac)C[Yde][2Nal][Thp]EN[3Pal][Sar]-NH2
modifications: lactam N-10; disulfide 2-6; not fully specified (residue 3); printed as Apt(§1)-C(§3)(@2)-K[aAc](@3)-Wme-K[Ac]-C(@2)-Yde-Nal-ThpE(§1)-N-Pal-Sar-NH2; also: K[aAc]: Cys2 bonded to epsilon-NH2 of acetylated Lys3, acetyl presumably on alpha-amine
B3: Compound of SEQ ID NO: 149 (peptide)
peptide: [Ava]CK[Trp(7-Me)]K(Ac)C[Yde][2Nal][αMeLys(Me2)]EN[3Pal][Sar]-NH2
modifications: lactam N-10; disulfide 2-6; not fully specified (residue 3); printed as Apt(§1)-C(§3)(@2)-K[aAc](@3)-Wim-K[Ac]-C(@2)-Yde-Nal-MKdm-E(§1)-N-Pal-Sar-NH2; also: K3 acetylated (K[aAc]), acetyl site not given here, ε-NH2 takes the Cys2 bond
B4: Compound of SEQ ID NO: 150 (peptide)
peptide: [Dad]CNT[Trp(7-Me)]LC[Yde][2Nal][αMeLys(Me2)]KN[3Pal]-NH2
modifications: lactam (positions not given here); disulfide 2-7; not fully specified (bridges); printed as Dad(§1)-C(@2)-N-T-Wim-L-C(@2)-Yde-Nal-MKdm-K(§1)-N-Pal-NH2
B5: Compound of SEQ ID NO: 151 (peptide)
peptide: [Dad]CNT[Trp(7-Me)]K(Ac)C[Yde][2Nal][αMeLys(Me2)]KN[3Pal][Sar]-NH2
modifications: lactam (positions not given here); disulfide 2-7; not fully specified (bridges); printed as Dad(§1)-C(@2)-N-T-Wim-K[Ac]-C(@2)-Yde-Nal-MKdm-K(§1)-N-Pal-Sar-NH2
B6: Compound of SEQ ID NO: 154 (peptide)
peptide: [Dad]CNT[Trp(7-Me)]LC[Yde][2Nal][αMeLys(Me2)]KN[3Pal][Sar]-NH2
modifications: lactam (positions not given here); disulfide 2-7; not fully specified (bridges); printed as Dad(§1)-C(@2)-N-T-Wim-L-C(@2)-Yde-Nal-MKdm-K(§1)-N-Pal-Sar-NH2
B7: Compound of SEQ ID NO: 155 (peptide)
peptide: [Dad]CNT[Trp(7-Me)]LC[Yde][2Nal][αMeLys(Me2)]KA[3Pal][Sar]-NH2
modifications: lactam (positions not given here); disulfide 2-7; not fully specified (bridges); printed as Dad(§1)-C(@2)-N-T-Wim-L-C(@2)-Yde-Nal-MKdm-K(§1)-A-Pal-Sar-NH2
B8: Compound of SEQ ID NO: 156 (peptide)
peptide: [Dad]CNT[Trp(7-Me)]K(Ac)C[Yde][2Nal][αMeLys(Me2)][Lys(Me)]N[3Pal][Sar]-NH2
modifications: lactam (positions not given here); disulfide 2-7; not fully specified (bridges); printed as Dad(§1)-C(@2)-N-T-Wim-K[Ac]-C(@2)-Yde-Nal-MKdm-Kme(§1)-N-Pal-Sar-NH2
B9: Compound of SEQ ID NO: 9 (peptide)
peptide: XCNTWQCXXXDNG
modifications: not fully specified; Ahx(§1)-C(@2)-N-T-W-Q-C(@2)-Yae-Nal-Aib-D(§1)-N-G-NH2
B10: Compound of SEQ ID NO: 157 (peptide)
peptide: [Dad]CNT[Trp(7-Me)]K(Ac)C[Yde][2Nal][Aib]KN[3Pal][Sar]-NH2
modifications: lactam (positions not given here); disulfide 2-7; not fully specified (bridges); printed as Dad(§1)-C(@2)-N-T-Wim-K[Ac]-C(@2)-Yde-Nal-Aib-K(§1)-N-Pal-Sar-NH2
B11: Compound of SEQ ID NO: 158 (peptide)
peptide: [Dad]C[εLys][Trp(7-Me)]LC[Yde][2Nal][αMeL]KN[3Pal][Sar]-NH2
modifications: disulfide 2-6; lactam 1-10; also: K3 acetylated (K[aAc]), acetyl site not given here, ε-NH2 takes the Cys2 bond

Target: T1, IL-23 receptor on the surface of …
Test: cell-based or functional assay

Compared with B1, B2 is lower in “pSTAT3 (nM)” value: 0.37 nM for the first, 0.11 nM for the second.

Compared with B3, B4 is higher in “pSTAT3 (nM)” value: 0.04 nM for the first, 0.13 nM for the second.

Compared with B5, B6 is higher in “pSTAT3 (nM)” value: 0.06 nM for the first, 0.08 nM for the second.

Going from B7 to B8, the “pSTAT3 (nM)” value falls from 0.1 nM to 0.08 nM.

Going from B9 to B10, the “pSTAT3 (nM)” value falls from 65 nM to 0.06 nM.

With B11 the “pSTAT3 (nM)” value was 0.39 nM.
